Assay: yeast display, Sf9 membrane polyspecificity reagent, FACS + sequencing; frameworks hold sequencing errors
Procedure, shortened: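 Using colony PCR, genes from sorted yeast display clones were amplified, then sequenced on MiSeq at 2 × 250 and filtered by CDR length. The clones had been stained with 10% biotinylated, detergent-solubilized Sf9 membrane reagent for 1 hour at 4 °C and sorted by FACS into low and high (top ~1%) gates on anti-HA and streptavidin fluorescence. Polyreactivity labels come from the gate of origin.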

Row | Sequence | polyreactivity (PSR sort gate)
1 | QVQLVESGGGLVQAGGSLRLSCAASGRTFRYNAMGWYRQATGKVRELVAAISGRGSSTYYADSVKGRFTISRDNAKNTVYLQMNSLKPDDTAVYYCAALPASVRRPGWHDYWGQGTQVTVSS | high polyreactivity
2 | QVQLVESGGGLVQAGGSLRLSCAASGNTFGHYTMGWYRQAPGKERELVAAISWDDSSTNYADSVKGRFTISRDNAKNTVYLQMNILKPEDTAVYYCAKETELRTQYPYVYDYWGQGSQVTVSS | low polyreactivity
3 | QVQLVESGGGLVQAGGSLRLSCAASGYTFDYYAMGRYRQAPGNERELVAAITNSGGSTYYADSVKGRFTISRDNAKKTVYLQMNSLKPEDPAVYYCAALYYVKPGQRYDYWGQGTQVTVSS | high polyreactivity
4 | QVQLVESGGGLVQAGGSLRLSCGASGYISVGYAMGWYRPAPGKERELVAAITESGGSTYYADSVKGRFTISRDNAKNTVYLQMNSLKPEDSAVYYCAADVIYEDSMDYWGQGTQVTVSS | low polyreactivity
5 | QVQLVESGGGLVQAGGSLRLSCAASGYTLSLNAMGWYRQAPGKERELVAVISWNGGRTRYADSVKGRFTISRDNAKNTVYLQMNSLKPEDTAVYYCNADIYARTYAGYYQWRPYDYWGQGTQVTVSS | high polyreactivity
6 | QVQLVESGGGLVQAGGSLRLSCAASGSTFEDYAMGGYRQAPGKERELVAAISHIGGSTYYADSVKGRFTISRDNAKNTVYLQMNSLKPEDTAVYYCAKGGFSSKFDFWGQGTQVTVSS | low polyreactivity
7 | QVQLVESGRGIVQAGGSLRLSCAASGSIFLHNAMGWYRQAPGKETELVAAITGSGGYTYYADSVKGRFTISRDNPKNTVYIQMNSRQPEDTAVYYCAACSRSRYYRYVYYQYVTMDYWGQGTQETVSS | high polyreactivity
8 | QVQLVESGGGLVQAGGSLRLSCAASGFTFAVSAMGWYRQAPGKERELVAAISRSGTRTYYADSVKGRFTISRDNAKNTVYLQMNSLKPEDTAVYYCAADKYRHGYDYWGQGTQVTVSS | low polyreactivity
9 | QVQLVESGGGLVQAGGSLRLSCAASGRTFFHYAMGGSRQAPGKERELVAAMTSRGDSTYYADSVKGRFTISRDNAKNTVYLQMNSLKPAETAVYYCAVYSHRRNMNYWGQGTQVTVSS | high polyreactivity
10 | QVQLVESGGGLVQAGGSLRLSCAASGRIFSVYAMGWYRQAPGKEREFVASISWRGGRTYYADSVKGRFTISRDNAKNTFYLQMNSLKPEDTAVYYCAAVSYPAVYGFDYWGQGTQVTVSS | high polyreactivity
11 | QVQLVESGGGLVQAGGRLRLSCAASGSIFPQYAMGWYRQAPGKERELVAAITWSGSRTRYADSVKGRFTISRDNAKNTVYLQMNSLKPEDTAVYYCAARVNGQTYYYWGQGTQVTVSS | high polyreactivity
12 | QVQLVESGAGLVQAGGSLRLSCAASGFTFAKYAMGWYRQAPGKERELVATIRRSDDNTYYADSVKGRFTISRDNAKNTVYLQMNSLKPEDTAVYYCATGYYALYSRKPYKYNYWGQGTQVTVSS | high polyreactivity
13 | QVQLVESGGGLVQAGGSLRLSCAASGSIFTFYALGWYRQAPGQERELVAAISYSGGSTYYADSVTGRFTISRDNAKITVYLQMNSLKPEDTAVFYCARDYFVDGPGYDYWGQGTQVTVSS | low polyreactivity
14 | QVQLVESGGRLVQAGGSLRLSCAASGRTFQSYAMGWYRQAPGKERELVAAITITGGRTYYADSVKGRFTISRDNAKNTVYLQMNSLKPEDTAVYYCAAEEYSHYTLGYDYWGQGTQVTVSS | low polyreactivity
15 | QVQLVESGGGLVQAGVSLRLSCAASGSTFYDIAMGWYRQATGKDRELVAAISYSGASTYYADSVKGRFTISRDNAKNTVYLHINSLKPEDTAVYYCAKTFYTLYWGQGTKVTVSS | low polyreactivity
16 | QVQLVESGGGLVQAGGSLRLICAASGSIFRSYSMGWYRQAPGKERELVAGINRSGASTYYADSVKGRFTISRDNAKNTVYLQMNSMKPEDTAVSYCNARAQRGGYNYWGQGTQVTVSS | high polyreactivity
17 | QVQLVESGGGLVQAGGSLRLSCAASGSIFYDYTMGWYRQAPGKERELVAAINSGGSTNYADSVKGRFTISRDNAKNTVYLQMNSLKPEDTAVYYCAAVRYNSRVSTTPSEMYYLGQGTQVTVSS | low polyreactivity
18 | QVQLVESGGGLVQAGGSLRLSCDASGSTIKYYAMGWYRQAPGTEMELVARITSDCGSTFYADSVKGRFTISRDNAKNTVYLLMNRLKPEDTAVYYCNTDYAFRHCWFYPMDYWGQGTQVTVSS | high polyreactivity
19 | QVQLVESGGGLVQAGGSLRLSCAASGGTQRYYVMGSYRQAPGKERELVAAISWSGDSTYYADSVKGRFTISRDNAKNTVYLQMNSLKPEDTAVYYCAATYYLTYYYGQANHCYDYWGQGTQVTVSS | low polyreactivity
20 | QVQLVESGGGLVQAGGSLRLSCAASGFTFYGYGMGWYRQAPGKERELVAGISSGGGSTFYADSVKGRFTISRDNAKNTVYLQMNSLKPEDTAVYYCAALHYGGYFSYYPYYYWGQGTQVTVSS | low polyreactivity
21 | QGQLVESGGGLVQAGGSLRLTCPPSGFTFRTNAMGWYRQAPGKERELVAAISYSGGSTYYADSVKGRFTISRDNAKNTVYFQMNSLKPEDTAVSYCAARAAGSQHDYWGQGSQVTVSS | high polyreactivity
22 | QVQLVESGGGLVQAGGSLRLSCAASGIIFDVYAMGWYRQAPGKEREFVAAITTGGSTNYADSVKGRFTISRDNAKNSVYLQMNSLTPEDTAVYYCNADWDVGYGYWGQGTQVTVSS | low polyreactivity

Row | Sequence | polyreactivity (PSR sort gate)
23 | QVQLVESGGGLVQAGGSLRLSCAASGRIFPYYAMGWYRQAPGKEWELVAAISSSSGSTYYADTVKGRFTISRDNAKNTVYLQMNSLKPEDTAVYYCAARKSWRYNIWSRNAYEDWGQGTQVTVSS | high polyreactivity
24 | QVQLVESGGGLVQAGGRLRLSCAASGRTFRYYGMGWYRQAPWKERELVAAISWSGGSTYYADSVKGRFTISRDNAKNTVYLQMNSLTPEDTAVYYCNVDFHWQRFHHKSAAYDYWGQGTQVTVSS | high polyreactivity
25 | QVQLVESGGGLVQEGGSLRLICAASGSTFYDYAMGWYRQAPGKERELVAAINWSSDTTYYADSVKGRFTISRDNAKNTVYLQMNSMKPEDTAVYYCATDSAYRGYDYWGQGTQVTVSS | low polyreactivity
26 | QVQLVESGGGLVQAGGSLRLSCAASGSTLDRNTMGWYRQAPGKERELVAAITWSGGRTYYADSVKGRFTITRDNAKNTVYLQMNSLKPEDTAVYYCNKDYWKRPVDEYDYWGQGTQVTVSS | high polyreactivity
27 | QVQLVESGGGLVQAGGSLRLSCAASGSIFSWYAMGWYRQAPGKERELVATITWRGGSTYYADSVKGRFTISRDNAKNTVYLQMNSLKPEDTAVYYCAARVPDPYTSYRYPPYYYWGQGTQVTVSS | low polyreactivity
28 | QVQLVESGGGLVQAGGSLRLSCAASGLTFIYNAMGWYRQAPGKERELVAAISGNGGDTYYADSVKGRFTISRDNAKNTVYLQMNSLKPEDTAVYYCAADYAYTPITWDEYWGQGTQVTVSS | low polyreactivity
29 | QVQLVESGGGLVQAGGSLRLSCAASGSIFIYYAMGWYRQAPGKERELVAAINIGGSTYYADSVKGRFTISRDNAKNTVYFQMNSLKPEDTAVYYCNAATWYRVYPYYIIFDYWGQGTQVTVSS | low polyreactivity
30 | QDQLVESGGGLVQAGGSLSLSCAASGRTFYWYVMGWYRQAPGKERELVAAITQTGSSSYYADSVKGRFTISRDNAKNTVYLQMNSLKPEDTAVYYCADRLSRNHYEVDYWGQGTQVTVSS | low polyreactivity
31 | QVQLVESGGGLVQAGGSLRLSCAASGSIFRAYAMGWYRQAPGKERELVAAISWGGGSTSYADSVKGRFTISRDNAKNTVYLQMNSLKPEDTAVYYCNKVSLSKRRDYYWGQGTQVTVSS | high polyreactivity
32 | QVQLVESGGGLVQAGGSLRLSCAASGRIFSYNAMGWYRQAPGKERELVAAISTGTSTYYADSVKGRFTISGDNAKNTVYLQMNSLKPEDTAVYYCAVDAYYWYQWYDYWGQGTQVTVSS | low polyreactivity
33 | QVQLVESGVGLVQAGGSLRLSCAASGITFNVNAMGWYRQAPGKERELVARITTSGGSTSYADSVKGRFTISRDNAKNTVYLQMNSLKPEDTAVYYCAADRARYYSEYDYWGQGTQVTVSS | low polyreactivity
34 | QVQLVESGGGLVQAGGSLRLSCAASGRIFDHNAMGWYRQAPGKERELVAAIDWSGGSTYYADSVKGRFTISRDNAKNTVYLQMNSLKPEDTAVYYCNVYWHTFSWDDYGYWGQGTQVTVSS | low polyreactivity
35 | QVQLVESGGGLVQAGGSLRLSCAASGSTSRGYAMAWYRQAPGKERELFASITLSGGNTYYADSVKGRFTISRDNAKNTVYLQMNSLKPEDTAVYYCAADDRGSSYGHFTVEYGYWGQGTQVTVSS | low polyreactivity
36 | QVQLVESGGGLVQAGGSLRLSCAASGFIFSRYAMGWYRQAPGKERELVAYITRRGGRTFYADSVKGRFTISRDNAKNTVYLQMNSLKPEDTAVYYCGADAYGLTLFYVFSYDYWGQGTQVTVSS | high polyreactivity
37 | QVQLVESGGGLVQAGGSLRLSCAASGSTFSFNDMGGYRPAPGKERELVADISWSGDTTYADSVKGRFTISRDNAKNTVYLQMNSLIPEDSAVYYCNAEGFSISFYGNWVVQWEFDYWGQGTQVTVSS | high polyreactivity
38 | QVQLVESGGGIVQAGGSLRLSCAASGNIFSYYAMGWYRQAPGKERELVAAITYRSDSTYYADSVKGRFTISRDNAKNTVYLQMNSLKPEDTAVYYCATEPWYGWGFGYWGQGTQVTVSS | low polyreactivity
39 | QVQLVESGGGLVQAGGSLRLSCAASGSIFPAYAMGWYRQAPGKERELVASITGSGGSTYYADSVKGRFTISRDIAKNTVYLQMNSLKPEDTAVYYCNARYYVYSATVDRYYHFYYWGQGTQVTVSS | high polyreactivity
40 | QVQLVESGGGLVQAGGILRLSCAASGITFRYYAMGWYRQAPGKERELVAAITGNGGGTYADSVKGRFTISRDTAKYTGYLQMNSLKPEVTAVNYCSADYGRRWGYDYWGQGTQVTVSS | low polyreactivity
41 | QVQLVESGGGLVQAGGSLRLSCAASGIIFYRNTMGWYRQAPGKERELVASISRGGSTNYADSVKGRFTISRDNAKNTVYLQMNSLKPEDTAVYYCAAYTYIPLSYYRGYTMDYWGQGTQVTVSS | low polyreactivity
42 | QVQLVESGGGLVQAGGSLRLSCAASGGTFSYYTMGWYRQAPGKERELVARISKNGGRTYYADSVKGRFTISRDNAKNTVYLQMNCLKPEDTAVYYCNAAGRTYDFSGGRTMEYWGQGTQVTVSS | high polyreactivity
43 | QVQLVESGGGLVQAGGSLRLSCAASGRIIKFYAMGWYRQAPGKERELVARISRSGGRTYYADSVKGRFTISRDNAKNTVYLQMNSLKPEDTAVYYCAADTQSVATYDYWGQGTQVTVSS | low polyreactivity

Source: the nanobody polyreactivity screen of Harvey et al. (2022)
